In patent publication US20230340054A1 (published 2023) one finds Kd data, which are given here for 1 molecule.

Experiment [1] addresses F906-(G2S1)4-IL2-(G2S1)6-HLE (IL2wt). Nature of the experiment: BLI. In general terms: Biolayer interferometry detects binding as a change in optical thickness at a sensor tip.
The target of experiment [2] is F906-(G2S1)4-IL2(E62A)-(G2S1)6-HLE (IL-2mut). Nature of the experiment: BLI.

B1: CD122 (receptor)
chain: AVNGTSQFTCFYNSRANISCVWSQDGALQDTSCQVHAWPDRRRWNQTCELLPVSQASWACNLILGAPDSQKLTTVDIVTLRVLCREGVRWRVMAIQDFKPFENLRLMAPISLQVVHVETHRCNISWEISQASHYFERHLEFEARTLSPGHTWEEAPLLTLKQKQEWICLETLTPDTQYEFQVRVKPLQGEFTTWSPWSQPLAFRTKPAALGKD
modifications: biotinylated (site not stated)
In the case of B1, the Kd in experiment [1] and in experiment [2] was approximately 40 nM throughout.

The Kd is the free concentration of one partner at which half of the binding sites on the other are occupied at equilibrium, for simple one-to-one binding. Higher therefore signals lower affinity.
